# Experimental data: the DeepSol protein solubility set
# Test: soluble on expression in E. coli; label from the status in PepcDB or PDB records
row,Sequence,soluble on expression in E. coli
1,MVKANVQAIDQLDAEQLGSGMVITDRQLSIVAVSEPTPRWLGFAKNELVGRPVGVLFSAEWSAALLDGIAEAVKKDGCWQGEARHVAKSGKAYTSWMNVYRLSGSEGEWLVWHFVEQTAMPPADRPTTSELLGVIYDSAPFAVVPVAADGTVQDWGLSAERLFGRRKEEAVGRPIWSLFRCGSQTWLPFPPKEQRCGEGMVQRRDGTSANVSYTVIPMLQADGYIVLVEDETKQKQKEAERRRQVELAKKIQQNLLTPLIQNEAVTMDAVYIPSDDLSGDIYACYQIDLYRYGVIVIDVMGHGISSALVSMLLRSLLRGLIVRVIDPVSVASELEKHVQTLFPDEANDIRHLFSMIYLVIDTKERKIEYTNAGHPAGLLVFDDGSVHELDKGGLAIGSPFSLPFEKGVIHYDKRARLLLYTDGILEEIDPSILQSIEKIRSCTQMCRHLPDKRFLERLISQGPPLVSPSDDICLLSITVHG,not soluble
2,MGSDKIHHHHHHWFMPFDNWLYQLQNADPVEISSSGFEIAVIDYSKDGSESGEYSPEEIKIMVDAGVVPVAYVNIGQAEDYRFYWKESWYTNTPEWLGEEDPAWPGNYFVKYWYNEWKEIVFSYLDRVIDQGFKGIYLDRIDSFEYWAQEGVISRRSAARKMINFVLEIAEYVRERKPDMLIIPQNGENILDFDDGQLASTVSGWAVENLFYLKTIPLEENETKSRLEYLIRLNRKGKFILSVDYVDDGSDSFENISRILDYYEKAKRNGCIPYAARSDLELDEMNVIEGIQPPEALKDYESRTYR,not soluble
3,MGNINSLFTTNPSEILPVEVYLNDLSCDAVENLGSTRFMKVARGRTHEGVFVYKVFVRQDLASLDPFPQRIIDIRKALMKSPNCCPIKKVLVKQKYAVMVRAFQKHTLFDRLSTRPFVVEAEKMWYIFLLFKALSQCETAGVCHGDLKSQNVLISSTNWLQITDFAPFKPCFLTHDNPSSFTFFFDTSRRQSCYIAPERFISATEYDEKLRDGQDEWLFGSLTPKMDMFSAGCIVFELLCDRPPFTYSSLCEYRSMNDADAGNMLLRLIQDVPAPYRPLLRLLLNRDPSFRISANAVLTGAALKFPHILESFLFKYLDRFRPLYGTSTSSDPSTDDFSQALEFSYLEPDDVITKLKREKQLWWARLSENDESKSFAFLFVSLITANLRALRTIQGKTDAIRMLVELSTISDSSVAIDRILPYFVHLWMDPETQVRATAVTAVAELLAPIQPKTYEESLVFVDYLFPHLNSMSNDSIDSPQHVLFAIATSLGQFADTAYRFYMAGREIRQATMYDDEVSTAGEQQQNDDAGALLHGVSAMFSALCSKEPMVKRCLVESKSLILLYHFFIKIGNDDTLLRFLCTFLNAKTEWRLRAAFFDSLPVCVQKRSEGMVPLLQLGLQDGEEHVVVRALGCIHILIKNENLDKMSVKKLLDDVLPFLVHPNDWIRSTVCDILLAIDCQWHNAEVHVKLIPLVSPFVEESKRGVLTLKSKPVLMSQLVDPIPRTTFNQIIDQSLENTKQITMLLEIHFQTGKPFEAGAGWFNTIFPKIKTETKAGVVEHNDLKAALEARKRLTASVYSFRKLFERMAETRNTAGMEIYLTRQLGTIDLSSIAHSRVRRKEFTYGGDESAMSSNSKHLTAINIPNHSTERRDTLLLAGEVVIEEERTVTNTPAPYSPVKNTTFDNQVNEMLAHLNELHMRNVNCRPKRPLAASASHPVLSASPSAGSLGSSSNNNVKGIIITHLHEHSGKITKLCANRESDLFLSGSTDGTVKVWKTRSVLGEGYGSARSEDTWIPTETSREKVNSVGWNDQFACSATNDGFVRWADVGQGSARVATQVRIPDAEGPPVYLHCNGPMAIVRTHHGVLYGIDLRVGASEGPLKRHDIWRKKFQESHGLVTSSAIDPWQQSWMVIGNNSGQKNLVLYDLRFKEEVLRWESPHQNTQPNRVWANPVSRQECPEVFVGFSMHGEISTYELSAQPLRKRVFWTGGAPILSYSAASNDARKQDSLATRSLCVCEKTGVVYTGDTRGAIRKWNPTRAVGCEIISAPPKGRTAYRTIFEENDTSTAPSGASTDPFVIYERTVLDTEAKENQKVVPLDSKPSTYHRTPITDMMLLNSELLVSSGYDGVIKIWK,not soluble
4,MKKLTLREQQLVCLNILDYFHALCERYKISYSLGGGTLIGAIRHKGFIPWDDDIDVYMHRDEYQRFVDVWFQETHEHYNMETAEDILAQYTGEMAKIFDCRTQITDAKGRKSPMFMDIFIYDGVPNEPKIIYPLMKKHRRIKLRFSSCKKRWLRAKENTVQKAILNKLSHFLFSKMQKNLAQFQIKYPIKQCDYIGLVLSDYGGWQKSYMPKEYFNHVIYKEFEGRQFQVMNGYHEHLTQYYGDYMKLPPEEDQKPHHIQEAYILLEHHHHHH,not soluble
5,MGSDKIHHHHHHVRVLAIRHVEIEDLGMMEDIFREKNWSFDYLDTPKGEKLERPLEEYSLVVLLGGYMGAYEEEKYPFLKYEFQLIEEILKKEIPFLGICLGSQMLAKVLGASVYRGKNGEEIGWYFVEKVSDNKFFREFPDRLRVFQWHGDTFDLPRRATRVFTSEKYENQGFVYGKAVGLQFHIEVGARTMKRWIEAYKDELEKKKIDPRLLLETAEREEKVLKGLLRSLLERMVES,soluble
6,MKVTSLDGRQLRKMLRKEAAARCVVLDCRPYLAFAASNVRGSLNVNLNSVVLRRARGGAVSARYVLPDEAARARLLQEGGGGVAAVVVLDQGSRHWQKLREESAARVVLTSLLACLPAGPRVYFLKGGYETFYSEYPECCVDVKPISQEKIESERALISQCGKPVVNVSYRPAYDQGGPVEI,not soluble
7,MGSDKIHHHHHHMKTAALFVSKEFEEEAIALVEGANYKVTSIYKLPKSPNVKFYIQYDKLQQIKNDEEISTLIIFEQLKPRHFINIRRELKGKEVLDKILLLLEIFALHAGSKEAKMQIELARLKYELPIIKETYTKSKIGEQQGPLGAGTYGVESTIKFYKRRINKLMKELESIKIFKEKSIESNKRNNIPSIGIVGYTNSGKTSLFNSLTGLTQKVDTKLFTTMSPKRYAIPINNRKIMLVDTVGFIRGIPPQIVDAFFVTLSEAKYSDALILVIDSTFSENLLIETLQSSFEILREIGVSGKPILVTLNKIDKINGDLYKKLDLVEKLSKELYSPIFDVIPISALKRTNLELLRDKIYQLATQLS,not soluble
8,MLNRIIEHMNAHHVEDMKGLLKKFGQVHHAENVAFKSVDPQGIVIGYNHNQTLRIEFNHEVKDPKDYKNAIIELCQSVEKTHDLKGVEEEVKAFKESFDSVCLATLHPNGHVVCSYAPLMSDGKQYYIYVSEVAEHFAGLKNNPHNVEVMFLEDESKAKSAILRKRLRYKTNARFIERGAEFDKAFDSFIEKTGGAGGIKTIRAMQDFHLIALDFKEGRFVKGFGQAYDILGDKIAYVGDKGNPHNFAHKK,not soluble
9,MGFMIEHWDFSTPMATQETTTAEHIQPNHWYHCERLHPDIRSWLEDNHVPRATVDHLLADESRPSFHPLDDDNFMLILRGINMNENASPEDMLSIRILYFQGALISTRKIPSRAIMEIRQALAEHKGPKSLASLLNQIIEGLNGKIDLYLDTIEETLNEFDVNDESTYNHIAAQKALISIKRFIRPQQYAIRDLIESESELVTSRPHQYRFAHNNITRINETIEFYLGEVALFQDEIKHNRDEKTNKNS,soluble
10,MSLSTMLVAEDLSAVGGISLSSALPVLTAMQYDVAALPTSLLSTHTSGYGTPAVVDLSTWLPQVFAHWTRAQLHFDQALIGYVGSVALCQQITTYLEQQTLSLLVVDPVLGDLGQLYQGFDQDYVAAMRQLIQQADVILPNTTEAALLTGAPYQVTPDLEVILPALQAQLKTGAHAVITDVQRADQIGCAWLDEAGHVQYCGARRLPGHYNGTGDTLAAVIAGLLGRGYPLAPTLARANQWLNMAVAETIAQNRTDDRQGVALGDLLQAILALNEGHHHHHH,soluble
11,MTEAQRHQILLEMLAQLGFVTVEKVVERLGISPATARRDINKLDESGKLKKVRNGAEAITQQRPRWTPMNLHQAQNHDEKVRIAKAASQLVNPGESVVINCGSTAFLLGREMCGKPVQIITNYLPLANYLIDQEHDSVIIMGGQYNKSQSITLSPQGSENSLYAGHWMFTSGKGLTAEGLYKTDMLTAMAEQKMLSVVGKLVVLVDSSKIGERAGMLFSRADQIDMLITGKNANPEILQQLEAQGVSILRVLEHHHHHH,not soluble
12,SLTNKLESNYNKIACNIFYDKYKNANEIIKALKLIDIDDNDFKKSFSIYSKKATSGNDEKIVKFLLFNIERHLSGGICDEQIATIEHILPSSLNDEKVHKLGNYILLEAKYNQQLKNKNFKEKIDIYSKSNFKLAQYVAENFKTWDTKSIDQYQNFLAKQALALWKF,soluble
13,MNRKTGTTTVGIKVKDGVILAADTQASLDHMVETLNIRKIIPITDRIAITTAGSVGDVQMIARILEAEARYYYFAWGRPMTTKAMANLLSNILNENKWFPYLVQIIIGGYVDEPTIANLDPYGGLIFDNYTATGSGTPFAIAILEEGYKENLGIEEAKELAIKAIKAAGSRDVYTGSKKVQVVTITKEGMQEEFIKL,soluble
14,MKKTLTSPLVAAIAHTAAPVHAGTLEDVKARGNLLCSSTTGSPGFSMPDDAGKRHGLEVDVCRAIATAVFGDPERHKIVVLNPIQRFTALQSGEVDILFNTTTWTLSREGAGALYAGVTYYDGQGVLVRKGTIASAKELDGGAICTNQGSTTELNLVDFFRANKVSNEVITFATVQEAANAYESGRCDAWSADAGILAALRSKMKAPDDHVILADRLSKEPLGAAVRKGDDAWFSVVRWSIFALQAAEELGLTSKNIAEQAKSTTNPEVLRFVGKEGSLGKVLGLNGDWAYQIVAQVGSYAEIFDRNIGAASPLNLERGINASWKNGGLFYTPPFR,not soluble
15,MTKVLFITANPNSAEGSFGMAVGEAFIEAYKNEHPQDEVVTIDLFNTTVPAIDADVFAAWGKFAAGEGFEALTEVQQQKVAAMNTNLETFMNADRYVFVTPMWNFSYPPVVKAYLDNVAIAGKTFKYTENGPVGLLEGKKALHIQATGGVYSEGAYAAVDFGRNHLKTVLGFVGVNDTEYIAVEGMNANPEKAQEIKEAAIANARELAKRF,not soluble
16,MPYPKKVTIKEVGPRDGLQNEPVWIATEDKITWINQLSRTGLSYIEITSFVHPKWIPALRDAIDVAKGIDREKGVTYAALVPNQRGLENALEGGINEACVFMSASETHNRKNINKSTSESLHILKQVNNDAQKANLTTRAYLSTVFGCPYEKDVPIEQVIRLSEALFEFGISELSLGDTIGAANPAQVETVLEALLARFPANQIALHFHDTRGTALANMVTALQMGITVFDGSAGGLGGCPYAPGSSGNAATEDIVYMLEQMDIKTNVKLEKLLSAAKWIEEKMGKPLPSRNLQVFKSSLEHHHHHH,soluble
17,MLSRFSGKVALVTGSSNGIGRAAAVLFAKDGAKVTVTGRNAERLEETRQEILKSGVPESHVLSVATDLAAEKGQDELVNSTIQKFGRLDILVNNAGAAFNDDQGRVGVDQDVSVYDKIMQINMRSVVTLTQKAKEHLVKAKGEIVNVSSIAGTAHAQPGVMYYAMSKSALDQFTRCAAIDLIQYGVRVNSVSPGGVTTGFGEAMGMPSGAFEEMMKFMESRKECIPSGAVAKPIDIANIIAFLADRKLSSYIIGQSIVADGGSTLVLGMNAHNWADLMKQS,not soluble
18,MKIIILHGLYMHGLVMQPLSQKLRKLGYETQVLSYNTVAIDESSLFDSIDHSLNPLTANVLVGHSLGGLMIKRYLANRKPTTSLISHVVAIGSPLKGASIVGRIQDLGLGAILGNSPHHGLNKHHDAWAFPQKLGSIAGTVPIGARPLLIRNDNTMSDGTVTVEETRLDGMQDHIEVKQTHTSLIYNTFVPQQIDHFIRTDYFCR,not soluble
